B1: S. cerevisiae Abp1 (full length; SH3 domain 535-592 mutated) / Hua2 (parent complex)
chain 1: MALEPIDYTTHSREIDAEYLKIVRGSDPDTTWLIISPNAKKEYEPESTGSSFHDFLQLFDETKVQYGLARVSPPGSDVEKIIIIGWCPDSAPLKTRASFAANFAAVANNLFKGYHVQVTARDEDDLDENELLMKISNAAGARYSIQTSSKQQGKASTPPVKKSFTPSKSPAPVSKKEPVKTPSPAPAAKISSRVNDNNDDDDWNEPELKERDFDQAPLKPNQSSYKPIGKIDLQKVIAEEKAKEDPRLVQKPTAAGSKIDPSSDIANLKNESKLKRDSEFNSFLGTTKPPSMTESSLKNDDDKVIKGFRNEKSPAQLWAERKAKQNSGNAETKAEAPKPEVPEDEPEGEPDVKDLKSKFEGLAASEKEEEEMENKFAPPPKKSEPTIISPKPFSKPQEPVKAEEAEQPKTDYKKIGNPLPGMHIEADNEEEPEENDDDWDDDEDEAAQPPLPSRNVASGAPVQKEEPEQEEIAPSLPSRNSIPAPKQEEAPEQAPEEEIEEEAEEAAPQLPSRSSAAPPPPPRRATPEKKPKENPWATAEYDYDAAEDNELTFVENDKIINIEFVDDDWWLGELEKDGSKGLFPSNYVSLGN
chain 2: MQQTKFGKMYLDHDSVVEYSEDEIVEADRITLGYKKRLSMIENQMRHLLEDFSLDVQQIEPILADLQKYYDAFLQLLQKRNKSLQCKRSTHQPVPSPMNSQTSTNAKVNLSGKLMKFQLNSVQKFDEENILRILQNKIEFEHYFQIDKGKKQKVLLLAVYQCLNGPTRLHKVLNIEGIIHNNSIRTILGKQVSSSKWTVFLYDVKLVLLAHRQDVPNLETSKMIVRYGDLFPCALYFKDHTAY

In the assay the parent is B1. Description: DHFR protein-fragment complementation in yeast (Abp1-DHFR F[1,2] x partner-DHFR F[3]), deep mutational scanning, second methotrexate selection vs reference; S. cerevisiae, DHFR-PCA selection in liquid with methotrexate at 30 C, two 72 h selections (the score uses the second); reference = the pre-selection culture.
On to chain 1 S589C, for which the screen value was 0.299 DMS score: mean over two replicates of log2(f_test/f_ref + 0.5)/ln 2, minus the synonymous-codon median (not a log2 …. Regarding chain 1 S589W, the screen value was 0.0382 DMS score: mean over two replicates of log2(f_test/f_ref + 0.5)/ln 2, minus the synonymous-codon median (not a log2 …. Then chain 1 Y541N, with -1.91 DMS score: mean over two replicates of log2(f_test/f_ref + 0.5)/ln 2, minus the synonymous-codon median (not a log2 …; and chain 1 Y541E, with -1.48 DMS score: mean over two replicates of log2(f_test/f_ref + 0.5)/ln 2, minus the synonymous-codon median (not a log2 …. As to chain 1 D542Q, the screen value was 0.542 DMS score: mean over two replicates of log2(f_test/f_ref + 0.5)/ln 2, minus the synonymous-codon median (not a log2 ….

With chain 1 D542G, the screen value was 0.784 DMS score: mean over two replicates of log2(f_test/f_ref + 0.5)/ln 2, minus the synonymous-codon median (not a log2 …. On to chain 1 D542S, for which the screen value is 0.456 DMS score: mean over two replicates of log2(f_test/f_ref + 0.5)/ln 2, minus the synonymous-codon median (not a log2 …. With chain 1 P535M, the screen value was 1.02 DMS score: mean over two replicates of log2(f_test/f_ref + 0.5)/ln 2, minus the synonymous-codon median (not a log2 …. As for chain 1 P535Q, the screen value was 1.11 DMS score: mean over two replicates of log2(f_test/f_ref + 0.5)/ln 2, minus the synonymous-codon median (not a log2 ….

As to chain 1 P535V, the screen value was 1.51 DMS score: mean over two replicates of log2(f_test/f_ref + 0.5)/ln 2, minus the synonymous-codon median (not a log2 ….

For the variant chain 1 P535W, the screen value was 0.493 DMS score: mean over two replicates of log2(f_test/f_ref + 0.5)/ln 2, minus the synonymous-codon median (not a log2 …. As for chain 1 K576G, the screen value was -0.96 DMS score: mean over two replicates of log2(f_test/f_ref + 0.5)/ln 2, minus the synonymous-codon median (not a log2 …. Regarding chain 1 W536M, the screen value was -0.26 DMS score: mean over two replicates of log2(f_test/f_ref + 0.5)/ln 2, minus the synonymous-codon median (not a log2 …. On to chain 1 N586D, for which the screen value was -1.73 DMS score: mean over two replicates of log2(f_test/f_ref + 0.5)/ln 2, minus the synonymous-codon median (not a log2 …. Then chain 1 D567G, with -2.86 DMS score: mean over two replicates of log2(f_test/f_ref + 0.5)/ln 2, minus the synonymous-codon median (not a log2 …; and chain 1 D567E, with -1.62 DMS score: mean over two replicates of log2(f_test/f_ref + 0.5)/ln 2, minus the synonymous-codon median (not a log2 …; and chain 1 D567V, with -2.81 DMS score: mean over two replicates of log2(f_test/f_ref + 0.5)/ln 2, minus the synonymous-codon median (not a log2 …. chain 1 S579R: the screen value is 0.286 DMS score: mean over two replicates of log2(f_test/f_ref + 0.5)/ln 2, minus the synonymous-codon median (not a log2 …. As to chain 1 S579Q, the screen value was 0.0179 DMS score: mean over two replicates of log2(f_test/f_ref + 0.5)/ln 2, minus the synonymous-codon median (not a log2 …. Then chain 1 L571W, with -0.19 DMS score: mean over two replicates of log2(f_test/f_ref + 0.5)/ln 2, minus the synonymous-codon median (not a log2 …; and chain 1 L571Q, with -0.179 DMS score: mean over two replicates of log2(f_test/f_ref + 0.5)/ln 2, minus the synonymous-codon median (not a log2 ….

As for chain 1 V554R, the screen value is 0.925 DMS score: mean over two replicates of log2(f_test/f_ref + 0.5)/ln 2, minus the synonymous-codon median (not a log2 …. Then chain 1 V554L, with -0.408 DMS score: mean over two replicates of log2(f_test/f_ref + 0.5)/ln 2, minus the synonymous-codon median (not a log2 …. Regarding chain 1 V554Y, the screen value is 0.89 DMS score: mean over two replicates of log2(f_test/f_ref + 0.5)/ln 2, minus the synonymous-codon median (not a log2 …. With chain 1 K580T, the screen value is 0.165 DMS score: mean over two replicates of log2(f_test/f_ref + 0.5)/ln 2, minus the synonymous-codon median (not a log2 …. As for chain 1 K580R, the screen value was 0.457 DMS score: mean over two replicates of log2(f_test/f_ref + 0.5)/ln 2, minus the synonymous-codon median (not a log2 …. As for chain 1 D557E, the screen value was -0.885 DMS score: mean over two replicates of log2(f_test/f_ref + 0.5)/ln 2, minus the synonymous-codon median (not a log2 …. Then chain 1 E540L, with -2.53 DMS score: mean over two replicates of log2(f_test/f_ref + 0.5)/ln 2, minus the synonymous-codon median (not a log2 …. In the case of chain 1 L582Y, the screen value was 0.369 DMS score: mean over two replicates of log2(f_test/f_ref + 0.5)/ln 2, minus the synonymous-codon median (not a log2 …. As for chain 1 E573S, the screen value was -0.47 DMS score: mean over two replicates of log2(f_test/f_ref + 0.5)/ln 2, minus the synonymous-codon median (not a log2 …. Take chain 1 E573C: the screen value was 0.625 DMS score: mean over two replicates of log2(f_test/f_ref + 0.5)/ln 2, minus the synonymous-codon median (not a log2 …. With chain 1 I560N, the screen value was -0.729 DMS score: mean over two replicates of log2(f_test/f_ref + 0.5)/ln 2, minus the synonymous-codon median (not a log2 …. Consider chain 1 I560S, for which the screen value is -0.964 DMS score: mean over two replicates of log2(f_test/f_ref + 0.5)/ln 2, minus the synonymous-codon median (not a log2 …. Then chain 1 A545Q, with 0.22 DMS score: mean over two replicates of log2(f_test/f_ref + 0.5)/ln 2, minus the synonymous-codon median (not a log2 …; and chain 1 D544L, with 0.763 DMS score: mean over two replicates of log2(f_test/f_ref + 0.5)/ln 2, minus the synonymous-codon median (not a log2 …. Consider chain 1 D548V, for which the screen value is 0.053 DMS score: mean over two replicates of log2(f_test/f_ref + 0.5)/ln 2, minus the synonymous-codon median (not a log2 …. chain 1 D548R: the screen value was -1.06 DMS score: mean over two replicates of log2(f_test/f_ref + 0.5)/ln 2, minus the synonymous-codon median (not a log2 …. For the variant chain 1 D548K, the screen value was -0.245 DMS score: mean over two replicates of log2(f_test/f_ref + 0.5)/ln 2, minus the synonymous-codon median (not a log2 ….

Consider chain 1 D548A, for which the screen value is 0.159 DMS score: mean over two replicates of log2(f_test/f_ref + 0.5)/ln 2, minus the synonymous-codon median (not a log2 ….

With chain 1 N549A, the screen value was 2.13 DMS score: mean over two replicates of log2(f_test/f_ref + 0.5)/ln 2, minus the synonymous-codon median (not a log2 …. On to chain 1 N549G, for which the screen value is 1.33 DMS score: mean over two replicates of log2(f_test/f_ref + 0.5)/ln 2, minus the synonymous-codon median (not a log2 …. chain 1 N549H: the screen value is 0.106 DMS score: mean over two replicates of log2(f_test/f_ref + 0.5)/ln 2, minus the synonymous-codon median (not a log2 ….

As for chain 1 K558T, the screen value was 0.186 DMS score: mean over two replicates of log2(f_test/f_ref + 0.5)/ln 2, minus the synonymous-codon median (not a log2 …. As to chain 1 Y543F, the screen value was 0.735 DMS score: mean over two replicates of log2(f_test/f_ref + 0.5)/ln 2, minus the synonymous-codon median (not a log2 ….

Regarding chain 1 D566T, the screen value was -2.82 DMS score: mean over two replicates of log2(f_test/f_ref + 0.5)/ln 2, minus the synonymous-codon median (not a log2 ….

For the variant chain 1 D566G, the screen value is -2.66 DMS score: mean over two replicates of log2(f_test/f_ref + 0.5)/ln 2, minus the synonymous-codon median (not a log2 …. Turning to chain 1 N556T, the screen value was 0.279 DMS score: mean over two replicates of log2(f_test/f_ref + 0.5)/ln 2, minus the synonymous-codon median (not a log2 ….

In the case of chain 1 N556G, the screen value was 0.625 DMS score: mean over two replicates of log2(f_test/f_ref + 0.5)/ln 2, minus the synonymous-codon median (not a log2 ….

Turning to chain 1 N556C, the screen value is 0.444 DMS score: mean over two replicates of log2(f_test/f_ref + 0.5)/ln 2, minus the synonymous-codon median (not a log2 …. For the variant chain 1 N556L, the screen value is -0.482 DMS score: mean over two replicates of log2(f_test/f_ref + 0.5)/ln 2, minus the synonymous-codon median (not a log2 …. Take chain 1 L574M: the screen value is -0.568 DMS score: mean over two replicates of log2(f_test/f_ref + 0.5)/ln 2, minus the synonymous-codon median (not a log2 …. Then chain 1 A539C, with -0.17 DMS score: mean over two replicates of log2(f_test/f_ref + 0.5)/ln 2, minus the synonymous-codon median (not a log2 …; and chain 1 E563T, with -1.2 DMS score: mean over two replicates of log2(f_test/f_ref + 0.5)/ln 2, minus the synonymous-codon median (not a log2 …; and chain 1 E563D, with 0.0054 DMS score: mean over two replicates of log2(f_test/f_ref + 0.5)/ln 2, minus the synonymous-codon median (not a log2 …. Regarding chain 1 E563A, the screen value was -1.08 DMS score: mean over two replicates of log2(f_test/f_ref + 0.5)/ln 2, minus the synonymous-codon median (not a log2 …. Then chain 1 G578R, with -0.535 DMS score: mean over two replicates of log2(f_test/f_ref + 0.5)/ln 2, minus the synonymous-codon median (not a log2 …; and chain 1 G578Q, with -0.153 DMS score: mean over two replicates of log2(f_test/f_ref + 0.5)/ln 2, minus the synonymous-codon median (not a log2 …. In the case of chain 1 G591Q, the screen value is 0.531 DMS score: mean over two replicates of log2(f_test/f_ref + 0.5)/ln 2, minus the synonymous-codon median (not a log2 …. On to chain 1 E555P, for which the screen value is -0.507 DMS score: mean over two replicates of log2(f_test/f_ref + 0.5)/ln 2, minus the synonymous-codon median (not a log2 …. Then chain 1 E555Q, with 0.0961 DMS score: mean over two replicates of log2(f_test/f_ref + 0.5)/ln 2, minus the synonymous-codon median (not a log2 …; and chain 1 L551M, with -0.642 DMS score: mean over two replicates of log2(f_test/f_ref + 0.5)/ln 2, minus the synonymous-codon median (not a log2 …. For the variant chain 1 D568G, the screen value was -2.49 DMS score: mean over two replicates of log2(f_test/f_ref + 0.5)/ln 2, minus the synonymous-codon median (not a log2 ….

In the case of chain 1 D568A, the screen value was -1.81 DMS score: mean over two replicates of log2(f_test/f_ref + 0.5)/ln 2, minus the synonymous-codon median (not a log2 …. As to chain 1 V565W, the screen value was 0.964 DMS score: mean over two replicates of log2(f_test/f_ref + 0.5)/ln 2, minus the synonymous-codon median (not a log2 ….

As for chain 1 V565Y, the screen value is -0.425 DMS score: mean over two replicates of log2(f_test/f_ref + 0.5)/ln 2, minus the synonymous-codon median (not a log2 …. chain 1 V565R: the screen value is -2.71 DMS score: mean over two replicates of log2(f_test/f_ref + 0.5)/ln 2, minus the synonymous-codon median (not a log2 …. With chain 1 V565D, the screen value was -0.156 DMS score: mean over two replicates of log2(f_test/f_ref + 0.5)/ln 2, minus the synonymous-codon median (not a log2 …. Turning to chain 1 V565L, the screen value is -1.23 DMS score: mean over two replicates of log2(f_test/f_ref + 0.5)/ln 2, minus the synonymous-codon median (not a log2 …. With chain 1 F564Q, the screen value was -1.38 DMS score: mean over two replicates of log2(f_test/f_ref + 0.5)/ln 2, minus the synonymous-codon median (not a log2 …. chain 1 N592M: the screen value was 0.019 DMS score: mean over two replicates of log2(f_test/f_ref + 0.5)/ln 2, minus the synonymous-codon median (not a log2 …. For the variant chain 1 N592A, the screen value is 0.381 DMS score: mean over two replicates of log2(f_test/f_ref + 0.5)/ln 2, minus the synonymous-codon median (not a log2 …. chain 1 N592F: the screen value is 0.212 DMS score: mean over two replicates of log2(f_test/f_ref + 0.5)/ln 2, minus the synonymous-codon median (not a log2 ….

Turning to chain 1 N592Q, the screen value is 0.855 DMS score: mean over two replicates of log2(f_test/f_ref + 0.5)/ln 2, minus the synonymous-codon median (not a log2 …. Then chain 1 N592T, with 0.35 DMS score: mean over two replicates of log2(f_test/f_ref + 0.5)/ln 2, minus the synonymous-codon median (not a log2 …; and chain 1 Y587V, with -1.17 DMS score: mean over two replicates of log2(f_test/f_ref + 0.5)/ln 2, minus the synonymous-codon median (not a log2 ….

The values are drawn from publication PMC7954794 (2021).
